Results published in the RNAGym collection of RNA variant scans (doi:10.7554/elife.80360).

B1: Twister Ribozyme (parent)
chain: AACACUGCCAAUGCCGGUCCCAAGCCCGGAUAAAAGUGGAGGGGGCGG

Variants of: B1
Assay: self-cleavage, relative activity (ratio to wild type); higher = more cleavage; co-transcriptional

In order of falling self-cleavage:
1. G16A C27U  1.17
2. U12A A32C  1.15
3. U12A U31C  1.13
4. U12G G13C  1.05
5. A35U C46A  1.04
6. A10U G38A  1.04
7. U31C A35C  1.03
8. U6A A35U  0.992
9. A35C G44U  0.976
10. C20U G48U  0.963
11. G16A A30G  0.958
12. U12A C27U  0.945
13. A10G A30G  0.897
14. A22C A32G  0.879
15. U6A A34C  0.859
16. U37G G48U  0.856
17. A11C U12C  0.79
18. A22U A32G  0.786
19. U37A G44U  0.755
20. C8U A32C  0.733
21. C5U G47A  0.727
22. A35C G41U  0.709
23. A35G G45U  0.659
24. A11G U18A  0.61
25. G28U A35G  0.584
26. G28A G47U  0.576
27. U6G C15U  0.569
28. U12G A23U  0.566
29. A11C G28U  0.563
30. U18C A33U  0.542
31. A22C U31A  0.54
32. C14U G17A  0.538
33. A30G G43U  0.498
34. A22U A34U  0.495
35. C8U G45A  0.492
36. A11G G39A  0.477
37. G29C G47A  0.397
38. G16U A34G  0.396
39. A23G A33U  0.393
40. A11G U18C  0.382
41. C14A G42U  0.368
42. A22G G48U  0.334
43. C9A U37G  0.33
44. A30C A34U  0.314
45. G13A C19U  0.284
46. A23G A33G  0.281
47. A1G G47U  0.278
48. G7A A33U  0.269
49. G7A G48A  0.26
50. A10C A40C  0.253
51. G29U G41C  0.25
52. U6G A30C  0.246
53. A4G G16C  0.243
54. G43A G47A  0.237
55. G42A C46G  0.232
56. A1G G36C  0.227
57. C26U G38C  0.225
58. U6A C9U  0.223
59. C27U G43U  0.219
60. G29U G36U  0.212
61. U6C G45C  0.206
62. G29A A40U  0.204
63. A1C G36A  0.203
64. A1G C25A  0.197
65. A2G A34G  0.192
66. A1G U37C  0.192
67. C14A A40C  0.189
68. G16C G36A  0.188
69. G16A G39U  0.187
70. C5U U18A  0.186
71. C3A C27U  0.183
72. C25U G43U  0.182
73. A4C G47A  0.178
74. C3G C8A  0.174
75. C20U C27A  0.171
76. C3A U37G  0.17
77. A4G C19G  0.166
78. C5G G38U  0.165
79. G7U A30G  0.163
80. U6G G28C  0.16
81. G41A G45C  0.151
82. C19A A33U  0.148
83. G41C G43C  0.148
84. G29A A40G  0.146
85. A23G G39U  0.142
86. C8U G45C  0.141
87. A22U G41U  0.137
88. U6A G36C  0.136
89. C14A A40G  0.136
90. A30C G41A  0.133
91. U6C G41C  0.13
92. A23C G39A  0.127
93. G24A A30G  0.125
94. C19G G24C  0.125
95. C20A G28C  0.125
96. C25U G36U  0.123
97. C14G A30G  0.122
98. C20U A22G  0.119
99. C9A G39C  0.119
100. U18A C27A  0.114
101. C19G G41A  0.113
102. A2U G24A  0.112
103. G16U A34C  0.111
104. U37C G39U  0.11
105. U6C C21G  0.109
106. A2U G24C  0.109
107. G24A C46U  0.107
108. G24U C27A  0.106
109. C3U A4C  0.106
110. A30C G39U  0.106
111. C26A G36C  0.105
112. C26A U37C  0.105
113. A1C C20A  0.104
114. G17A C19A  0.104
115. A22C C27G  0.101
116. U6G C26U  0.0975
117. C15G G42C  0.0975
118. A23C A40C  0.0967
119. U18C A30C  0.0938
120. C3A A22G  0.0923
121. G24A G42C  0.0923
122. C21A C27G  0.0914
123. C19U G24A  0.0904
124. C9G G24A  0.0902
125. G24C C26A  0.0895
126. C20A C27A  0.0891
127. G7U U37C  0.0889
128. G24C A35U  0.0871
129. C20A C27U  0.0852
130. C21G G44C  0.0843
131. A22G C27G  0.084
132. A1C U6G  0.0831
133. C3A C20A  0.0829
134. C8A G29C  0.0825
135. C27G G42C  0.082
136. U18G A35C  0.0813
137. C19A G24U  0.0798
138. G7A C26A  0.0788
139. C21A A40U  0.0782
140. A2U U18A  0.0781
141. C14G C19G  0.078
142. C14G C46A  0.078
143. C20A C27G  0.0759
144. A10U C25A  0.0757
145. C20A G36A  0.0747
146. A1U A11C  0.0741
147. C15U C27G  0.0731
148. A2U C21U  0.0725
149. A4U C19U  0.0724
150. G7C C46G  0.0721
151. U6A C25A  0.0712
152. C3G C26G  0.0704
153. A2C A33U  0.0693
154. G24A A30U  0.0686
155. C9U C21A  0.0683
156. C25U A34C  0.0649
157. A1U A33U  0.0603
158. C5U G7C  0.0595
159. A4C G24U  0.0584
160. A2C C27A  0.0541
161. A2C G42A  0.0532
162. C14G G24U  0.0521
163. C21G U31A  0.0515
164. G7U G13U  0.0485
165. A2C G42U  0.0469
166. C5A G17C  0.0425
167. C8U U18G  0.0414
